Consider one molecule from patent US9549967B2, “Regulation of sodium channels by PLUNC proteins” (The University of North Carolina at Chapel Hill, priority 2009, dated 2017).

In the assay the target is T1, αR205,231Kβ, γR138K ENaC mutant (Rattus norvegicus, UniProt P37089+P37090+P37091, R138K/R205K/R231K).
T1 construct: expressed in transfected cells; host or cells: Xenopus laevis oocytes
T1 sequence (P37089 1-698 R205K/R231K): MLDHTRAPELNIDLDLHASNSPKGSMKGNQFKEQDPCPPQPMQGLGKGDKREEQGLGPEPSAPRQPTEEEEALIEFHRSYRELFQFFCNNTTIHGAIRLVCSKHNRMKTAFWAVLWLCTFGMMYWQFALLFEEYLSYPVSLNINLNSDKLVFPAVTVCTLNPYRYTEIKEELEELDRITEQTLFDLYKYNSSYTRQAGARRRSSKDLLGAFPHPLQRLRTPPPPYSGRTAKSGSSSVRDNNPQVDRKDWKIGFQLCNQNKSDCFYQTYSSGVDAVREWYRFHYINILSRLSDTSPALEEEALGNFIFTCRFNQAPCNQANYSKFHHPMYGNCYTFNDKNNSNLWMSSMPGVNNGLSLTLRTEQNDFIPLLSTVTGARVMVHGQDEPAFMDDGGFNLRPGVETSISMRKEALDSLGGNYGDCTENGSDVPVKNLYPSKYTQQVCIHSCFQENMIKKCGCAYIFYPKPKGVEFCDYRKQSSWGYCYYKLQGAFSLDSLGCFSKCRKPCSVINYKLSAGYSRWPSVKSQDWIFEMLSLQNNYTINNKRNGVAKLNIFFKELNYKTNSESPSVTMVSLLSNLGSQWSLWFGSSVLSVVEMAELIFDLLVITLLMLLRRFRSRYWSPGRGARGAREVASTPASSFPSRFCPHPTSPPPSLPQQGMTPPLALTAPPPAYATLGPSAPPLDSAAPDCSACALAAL
T1 sequence (P37090 1-638): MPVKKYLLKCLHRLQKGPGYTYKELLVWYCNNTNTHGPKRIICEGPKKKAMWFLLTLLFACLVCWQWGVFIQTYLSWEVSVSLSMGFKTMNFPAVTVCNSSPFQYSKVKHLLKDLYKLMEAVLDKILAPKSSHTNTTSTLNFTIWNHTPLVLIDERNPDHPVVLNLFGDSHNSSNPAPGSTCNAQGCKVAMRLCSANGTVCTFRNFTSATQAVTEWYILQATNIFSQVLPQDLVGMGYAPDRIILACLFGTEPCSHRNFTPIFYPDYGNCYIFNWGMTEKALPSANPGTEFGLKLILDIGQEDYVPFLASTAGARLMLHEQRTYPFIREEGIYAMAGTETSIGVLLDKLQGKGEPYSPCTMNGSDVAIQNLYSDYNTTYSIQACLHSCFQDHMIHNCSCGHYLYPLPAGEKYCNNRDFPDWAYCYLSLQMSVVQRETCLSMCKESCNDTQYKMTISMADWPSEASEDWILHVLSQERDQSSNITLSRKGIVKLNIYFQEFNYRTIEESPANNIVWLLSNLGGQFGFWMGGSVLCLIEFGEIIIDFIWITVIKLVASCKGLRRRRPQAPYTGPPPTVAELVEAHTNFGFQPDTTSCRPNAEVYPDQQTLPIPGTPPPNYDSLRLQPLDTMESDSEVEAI
T1 sequence (P37091 1-650 R138K): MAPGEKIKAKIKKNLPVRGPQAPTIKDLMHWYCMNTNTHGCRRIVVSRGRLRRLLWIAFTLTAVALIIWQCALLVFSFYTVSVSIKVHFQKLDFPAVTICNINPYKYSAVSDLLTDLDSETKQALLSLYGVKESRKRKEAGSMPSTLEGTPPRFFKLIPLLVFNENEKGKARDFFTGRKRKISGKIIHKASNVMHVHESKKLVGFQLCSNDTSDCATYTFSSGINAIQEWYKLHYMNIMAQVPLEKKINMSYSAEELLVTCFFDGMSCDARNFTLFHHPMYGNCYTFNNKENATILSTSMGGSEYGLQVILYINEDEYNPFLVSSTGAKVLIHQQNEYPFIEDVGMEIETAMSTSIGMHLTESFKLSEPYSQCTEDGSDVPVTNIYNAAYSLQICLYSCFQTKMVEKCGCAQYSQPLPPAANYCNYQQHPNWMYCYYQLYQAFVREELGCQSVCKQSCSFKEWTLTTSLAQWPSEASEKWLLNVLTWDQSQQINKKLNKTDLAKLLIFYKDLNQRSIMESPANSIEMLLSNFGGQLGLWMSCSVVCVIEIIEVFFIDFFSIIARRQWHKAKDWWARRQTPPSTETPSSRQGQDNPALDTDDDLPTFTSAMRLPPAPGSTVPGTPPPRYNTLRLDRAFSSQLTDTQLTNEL
In words: Oocyte current of furin-insensitive ENaC mutant. It is filed as cell-based. Conditions: co-expression in oocytes. How it is done: Oocyte studies. Xenopus laevis oocytes were harvested and injected as described (Donaldson, et al., J. Biol. Chem. 277:8338 (2002)). Defolliculated healthy stage V-VI oocytes were injected with 0.3 ng of cRNA of each ENaC subunit. Injected oocytes were kept in modified Barth's saline (in mM: 88 NaCl, 1 KCl, 2.4 NaHCO3, 0.3 Ca(NO3)2, 0.41 CaCl2, 0.82 MgSO4, and 15 HEPES, adjusted to pH 7.35 with Tris). Oocytes were studied 24 hr after injection using the two electrode voltage clamp technique as previously described (Donaldson, et al., J. Biol. Chem. 277:8338 (2002)). Oocytes were clamped at a holding potential of […]. The change in amiloride-sensitive whole cell current as an indicator of ENaC activity was determined by subtracting the corresponding current value measured in the presence of 10 μM amiloride from that measured before the application of amiloride.

B1: SPLUNC1: human SPLUNC1, 256 amino acid secreted PLUNC protein (SEQ ID NO:1); rSPLUNC1 = V5/6His-tagged protein purified from HEK293 media (protein, listed as Homo sapiens)
chain: MFQTGGLIVFYGLLAQTMAQFGGLPVPLDQTLPLNVNPALPLSPTGLAGSLTNALSNGLLSGGLLGILENLPLLDILKPGGGTSGGLLGGLLGKVTSVIPGLNNIIDIKVTDPQLLELGLVQSPDGHRLYVTIPLGIKLQVNTPLVGASLLRLAVKLDITAEILAVRDKQERIHLVLGDCTHSPGSLQISLLDGLGPLPIQGLLDSLTGILNKVLPELVQGNVCPLVNEVLRGLDITLVHDIVNMLIHGLQFVIKV
modifications: V5/6His tag
notes: rSPLUNC1 = V5/6His-tagged protein purified from HEK293 media
Consider B1, for which the “inhibition of furin-insensitive ENaC mutant” value was “inhibited”.
